In patent US20190194350A1:

Legend:
[1] = biological target: His-tagged extracellular domain of EGFR (aa 20-643) (UniProt P00533); assay: ELISA, coated EGFR-His
[2] = biological target: His-tagged extracellular domain of EGFR (aa 20-643) (UniProt P00533); assay: ELISA, coated EGFR-His, detection with HRP anti-human Fc antibody; the legend paragraph 41 and paragraph 295 name Cetuximab as this control, the sheet prints hu225-IgG [panel EGFR-His]

B1: hu225-IgG (antibody, V domains shown)
VH: EVQLVESGGGLVQPGGSLRLSCAASGFSLTNYGVHWVRQAPGKGLEWLGVIWSGGNTDYNTPFTSRFTISRDNSKNTLYLQMNSLRAEDTAVYYCARALTYYDYEFAYWGQGTTVTVSS
VL: DIQLTQSPSFLSASVGDRVTITCRASQSIGTNIHWYQQKPGKAPKLLIKYASESISGVPSRFSGSGSGTEFTLTISSLQPEDFATYYCQQNNNWPTTFGAGTKLEIK
An EC50 [1] of 0.2 nM and an EC50 (read off the curve) [2] of 0.2 nM were found for B1 in this work.
